Laboratory results: patent US20250188133A1, “CHIMERIC BACTERIOCINS AND METHOD FOR THE CONTROL OF PSEUDOMONAS” (priority 2022, published 2025)

B1: S5-Pflu618: chimeric bacteriocin SEQ ID NO: 21: pyocin S5 first segment fused to P. fluorescens Pflu618 killing domain (protein)
chain: MSNDNEVPGSMVIVAQGPDDQYAYEVPPIDSAAVAGNMFGDLIQREIYLQKNIYYPVRSIFEQGTKEKKEINKKVSDQVDGLLKQITQGKREATRQERVDVMSAVLHKMESDLEGYKKTFTKGPFIDYEKQSSLSIYEAWVKIWEKNSWEERKKYPFQQLVRDELERAVAYYKQDSLSEAVKVLRQELNKQKALKEKEDLSQLERDYRTRKANLEMKVQSELDQAGSALPPLVSPTPEQWLERATRLVTQAIADKKQLQTTNNTLIKNSPTPLEKQKAIYNGELLVDEIASLQARLVKLNAETTRRRTEAEAEAKRIDDYKRAVAFVADANKYILEKYGANLHQVVMDLQKDISGKKIRSYAEAMQTFEAVRTNPNARLSPQDTRAVVDALNALDKATYMDSVNKLAKGFGVTGKIVQAHSVIEKTVIGFRDGNWKPLILELESIALGAGAGAAVATLLAVFSPGFAASAIGIVAVGVAIATIASLLNADNVEKINVFISDHLETALKEQR
modifications: S5-Pflu618
B2: S5-Pflu373: chimeric bacteriocin SEQ ID NO: 13: pyocin S5 first segment fused to P. fluorescens Pflu373 killing domain (protein)
chain: MSNDNEVPGSMVIVAQGPDDQYAYEVPPIDSAAVAGNMFGDLIQREIYLQKNIYYPVRSIFEQGTKEKKEINKKVSDQVDGLLKQITQGKREATRQERVDVMSAVLHKMESDLEGYKKTFTKGPFIDYEKQSSLSIYEAWVKIWEKNSWEERKKYPFQQLVRDELERAVAYYKQDSLSEAVKVLRQELNKQKALKEKEDLSQLERDYRTRKANLEMKVQSELDQAGSALPPLVSPTPEQWLERATRLVTQAIADKKQLQTTNNTLIKNSPTPLEKQKAIYNGELLVDEIASLQARLVKLNAETTRRRTEAEEQAKAEEEIKGAIKFTADFYKEIGEKYGAQMTASATDLAETAKGKTLRSAEEALKAFDQYKDHLDKKFSAADRAAIVNALDSLDRAELAKNLNLFAKGFGYTSKAFDVYDLVEEVKKSYASGDWNNTALKVETLFAGSAATGLIAFAFGVTVSTPVGIVAFALIMALVSAYIDDAHVKQFNDALDAILP
modifications: S5-Pflu373

Tests used:
Assay type in all cases: cell-based
[1] = tested on: P. aeruginosa strains; assay: agar disc-diffusion assay, panel of 25 strains; details: panel of 25 P. aeruginosa strains, in words
Experimental: (§1) Overnight P. aeruginosa cultures grown in CAA medium were equalized till OD595=1.0 in CAA and diluted 100×. Sterile cotton swab was briefly submerged in diluted microbial suspension, removing the excess of liquid by pressing it against the container wall. The swab was used for evenly streaking bacteria on plates containing growth medium with CAA solid agar (1.5%). 6 mm diameter sterile Whatman discs were placed on soft-agar and 0.3-30 μg of chimeric pyocins were spotted to paper disks. The plates were incubated overnight at 37° C. and bacteriocin inhibition zones were observed.
(§2) Next, all 25 P. aeruginosa strains were subjected to agar disc-diffusion assay by spotting different amounts of purified pyocin S5 (0.3 μg, 3 μg and 30 μg) on bacteria lawns. Six P. aeruginosa strains were resistant to pyocin S5. Four of these six strains were pyocin S5 and immunity protein-encoding strains—PA14, PAO1, […] and NCTC 13921. Two cystic fibrosis isolates, 12-35708 and 12-29165 were also completely resistant to pyocin S5, despite the absence of S5, or S5 immunity protein coding genes. […] Turbid inhibition zones were detected when 3 μg and 30 μg of S5 were spotted on the lawn of these strains (Table 1, FIG. 3).

[2] = tested on: P. aeruginosa HP7; assay: agar disc-diffusion assay; details: strain HP7; 0.3, 3 and 30 μg of protein spotted on discs on CAA agar lawn, overnight
Experimental: as §1, §2

[3] = tested on: P. aeruginosa NCTC 13921; assay: agar disc-diffusion assay; details: strain NCTC 13921; 0.3, 3 and 30 μg of protein spotted on discs on CAA agar lawn, overnight
Experimental: as §1, §2

[4] = tested on: P. aeruginosa Boston 41501 (ATCC 27853); assay: agar disc-diffusion assay; details: strain Boston; 0.3, 3 and 30 μg of protein spotted on discs on CAA agar lawn, overnight
Experimental: as §1, §2

[5] = tested on: P. aeruginosa PAO1; assay: agar disc-diffusion assay; details: strain PAO1; 0.3, 3 and 30 μg of protein spotted on discs on CAA agar lawn, overnight
Experimental: as §1, §2

[6] = tested on: P. aeruginosa HP1; assay: agar disc-diffusion assay; details: strain HP1; 0.3, 3 and 30 μg of protein spotted on discs on CAA agar lawn, overnight
Experimental: as §1, §2

[7] = tested on: P. aeruginosa Bu002; assay: agar disc-diffusion assay; details: strain Bu002; 0.3, 3 and 30 μg of protein spotted on discs on CAA agar lawn, overnight
Experimental: as §1, §2

[8] = tested on: P. aeruginosa UR78; assay: agar disc-diffusion assay; details: strain UR78; 0.3, 3 and 30 μg of protein spotted on discs on CAA agar lawn, overnight
Experimental: as §1, §2

[9] = tested on: P. aeruginosa HP41; assay: agar disc-diffusion assay; details: strain HP41; 0.3, 3 and 30 μg of protein spotted on discs on CAA agar lawn, overnight
Experimental: as §1, §2

[10] = tested on: P. aeruginosa BI80; assay: agar disc-diffusion assay; details: strain BI80; 0.3, 3 and 30 μg of protein spotted on discs on CAA agar lawn, overnight
Experimental: as §1, §2

[11] = tested on: P. aeruginosa Pr335; assay: agar disc-diffusion assay; details: strain Pr335; 0.3, 3 and 30 μg of protein spotted on discs on CAA agar lawn, overnight
Experimental: as §1, §2

[12] = tested on: P. aeruginosa A19; assay: agar disc-diffusion assay; details: strain A19; 0.3, 3 and 30 μg of protein spotted on discs on CAA agar lawn, overnight
Experimental: as §1, §2

[13] = tested on: P. aeruginosa ATCC 29260; assay: agar disc-diffusion assay; details: strain ATCC 29260; 0.3, 3 and 30 μg of protein spotted on discs on CAA agar lawn, overnight
Experimental: as §1, §2

[14] = tested on: P. aeruginosa BL77; assay: agar disc-diffusion assay; details: strain BL77; 0.3, 3 and 30 μg of protein spotted on discs on CAA agar lawn, overnight
Experimental: as §1, §2

[15] = tested on: P. aeruginosa HP52; assay: agar disc-diffusion assay; details: strain HP52; 0.3, 3 and 30 μg of protein spotted on discs on CAA agar lawn, overnight
Experimental: as §1, §2

[16] = tested on: P. aeruginosa HP6; assay: agar disc-diffusion assay; details: strain HP6; 0.3, 3 and 30 μg of protein spotted on discs on CAA agar lawn, overnight
Experimental: as §1, §2

[17] = tested on: P. aeruginosa HP40; assay: agar disc-diffusion assay; details: strain HP40; 0.3, 3 and 30 μg of protein spotted on discs on CAA agar lawn, overnight
Experimental: as §1, §2

[18] = tested on: P. aeruginosa 13-18499; assay: agar disc-diffusion assay; details: strain 13-18499; 0.3, 3 and 30 μg of protein spotted on discs on CAA agar lawn, overnight
Experimental: as §1, §2

[19] = tested on: P. aeruginosa PA14; assay: agar disc-diffusion assay; details: strain PA14; 0.3, 3 and 30 μg of protein spotted on discs on CAA agar lawn, overnight
Experimental: as §1, §2

[20] = tested on: P. aeruginosa HP75; assay: agar disc-diffusion assay; details: strain HP75; 0.3, 3 and 30 μg of protein spotted on discs on CAA agar lawn, overnight
Experimental: as §1, §2

[21] = tested on: P. aeruginosa EY76; assay: agar disc-diffusion assay; details: strain EY76; 0.3, 3 and 30 μg of protein spotted on discs on CAA agar lawn, overnight
Experimental: as §1, §2

[22] = tested on: P. aeruginosa NCTC 13437; assay: agar disc-diffusion assay; details: strain NCTC 13437; 0.3, 3 and 30 μg of protein spotted on discs on CAA agar lawn, overnight
Experimental: as §1, §2

[23] = tested on: P. aeruginosa BR79; assay: agar disc-diffusion assay; details: strain BR79; 0.3, 3 and 30 μg of protein spotted on discs on CAA agar lawn, overnight
Experimental: as §1, §2

Molecule	activity spectrum / profile in agar disc diffusion assay [1]	Activity in agar disc-diffusion assay [2]	Activity in agar disc-diffusion assay [3]	Activity in agar disc-diffusion assay [4]	Activity in agar disc-diffusion assay [5]	Activity in agar disc-diffusion assay [6]	Activity in agar disc-diffusion assay [7]	Activity in agar disc-diffusion assay [8]	Activity in agar disc-diffusion assay [9]	Activity in agar disc-diffusion assay [10]	Activity in agar disc-diffusion assay [11]	Activity in agar disc-diffusion assay [12]	Activity in agar disc-diffusion assay [13]	Activity in agar disc-diffusion assay [14]	Activity in agar disc-diffusion assay [15]	Activity in agar disc-diffusion assay [16]	Activity in agar disc-diffusion assay [17]	Activity in agar disc-diffusion assay [18]	other results
B1	weaker and less broad activity in comparison to pyocin S5	** (activity detected with 3 μg of protein)	* (activity detected only with 30 μg of protein)	** (activity detected with 3 μg of protein)	** (activity detected with 3 μg of protein)	** (activity detected with 3 μg of protein)	** (activity detected with 3 μg of protein)	* (activity detected only with 30 μg of protein)	** (activity detected with 3 μg of protein)	* (activity detected only with 30 μg of protein)	** (activity detected with 3 μg of protein)	*** (activity detected with 0.3 μg of protein)	* (activity detected only with 30 μg of protein)	* (activity detected only with 30 μg of protein)	* (activity detected only with 30 μg of protein)	* (activity detected only with 30 μg of protein)	** (activity detected with 3 μg of protein)	* (activity detected only with 30 μg of protein)	
B2	good activity profile, similar to S5-Pflu095	*** (activity detected with 0.3 μg of protein)	** (activity detected with 3 μg of protein)	*** (activity detected with 0.3 μg of protein)	*** (activity detected with 0.3 μg of protein)	*** (activity detected with 0.3 μg of protein)	*** (activity detected with 0.3 μg of protein)	*** (activity detected with 0.3 μg of protein)	*** (activity detected with 0.3 μg of protein)	*** (activity detected with 0.3 μg of protein)	*** (activity detected with 0.3 μg of protein)	*** (activity detected with 0.3 μg of protein)	*** (activity detected with 0.3 μg of protein)	** (activity detected with 3 μg of protein)	** (activity detected with 3 μg of protein)	*** (activity detected with 0.3 μg of protein)	*** (activity detected with 0.3 μg of protein)	** (activity detected with 3 μg of protein)	Activity in agar disc-diffusion assay [19]: ** (activity detected with 3 μg of protein); Activity in agar disc-diffusion assay [20]: ** (activity detected with 3 μg of protein); Activity in agar disc-diffusion assay [21]: *** (activity detected with 0.3 μg of protein); Activity in agar disc-diffusion assay [22]: * (activity detected only with 30 μg of protein); Activity in agar disc-diffusion assay [23]: ** (activity detected with 3 μg of protein)
